Reference: the RNAGym collection of RNA variant scans (doi:10.7554/elife.80360)

B1: HDV Ribozyme (parent)
chain: GGCCGGCAUGGUCCCAGCCUCCUCGCUGGCGCCGGCUGGGCAACAUUCCGAGGGGACCGUCCCCUCGGUAAUGGCGAAUGGGACCCA

Variants of: B1
Assay: self-cleavage, relative activity (ratio to wild type); higher = more cleavage; co-transcriptional

First: GGCCGGCUUGGUCCCAGCCUCCUCGCUGGCGCCGGCUGGGCAACAUUCCGCGGGGACCGUCCCCUCGGUAAUGGCGAAUGGGACCCA
Second: GGCCGGCUUGGUCCCAGCCUCCUCGCUGGCGCCGGCUGUGCAACAUUCCGAGGGGACCGUCCCCUCGGUAAUGGCGAAUGGGACCCA
The self-cleavage of the first is higher: 0.633 for the first, 0.571 for the second.

Compared with GGCCGGCUUGGUCCCAGCCUCCUCGCUGGCGCCGGCUGGGCAACAUUCCGAGGGGACCGUCCCCUCGGUAAUGGCGAAUGGGAUCCA, GGCCGGCUUGGUCCCAGCCUCCUCGCUGGCGCCGGCUGGGCAACAUUCCGAGGGGACCGUCCCCUCGGUAAUGGCGAAUGGGAACCA is higher in self-cleavage: 0.506 for the first, 0.95 for the second.

Going from GGCCGGCUUGGUCCCAGCCUCCUCACUGGCGCCGGCUGGGCAACAUUCCGAGGGGACCGUCCCCUCGGUAAUGGCGAAUGGGACCCA to GGCCGGCUUGGUCCCUGCCUCCUCGCUGGCGCCGGCUGGGCAACAUUCCGAGGGGACCGUCCCCUCGGUAAUGGCGAAUGGGACCCA, the self-cleavage rises from 0 to 0.962.

First: GGCCGGCUUGGUCCCAGCCUCCUCGCUGGCGCCGUCUGGGCAACAUUCCGAGGGGACCGUCCCCUCGGUAAUGGCGAAUGGGACCCA
Second: GGCCGGCUUGGUCCCAGCCUCCUCGCUGGCGCCGGCUGGGCAACAUUCCGAGGGGACCGUCCCCUGGGUAAUGGCGAAUGGGACCCA
The self-cleavage of the first is lower: 0.262 for the first, 0.8 for the second.

Compared with GGCCGGCUUGGUCCCAGCCUCCUCGCUGGCGCCGGCUGGGCAACAUUCCGAGGGGACCGUCCCCUUGGUAAUGGCGAAUGGGACCCA, GGCCGGCUUGCUCCCAGCCUCCUCGCUGGCGCCGGCUGGGCAACAUUCCGAGGGGACCGUCCCCUCGGUAAUGGCGAAUGGGACCCA is lower in self-cleavage: 0.906 for the first, 0.0978 for the second.

Compared with GGCCGGCUUGGUCCCAGCGUCCUCGCUGGCGCCGGCUGGGCAACAUUCCGAGGGGACCGUCCCCUCGGUAAUGGCGAAUGGGACCCA, GGCCGGCUUGGUCCCAGCCUCCUCGCUGGCGCCGGCUGGGCAACAUUCCGAGGGCACCGUCCCCUCGGUAAUGGCGAAUGGGACCCA is higher in self-cleavage: 0.106 for the first, 1.04 for the second.

First: GGCCGGCUUGGUCCCAGCCUCCUCGCUGGCGCCGGCUGGGCAUCAUUCCGAGGGGACCGUCCCCUCGGUAAUGGCGAAUGGGACCCA
Second: GGCCGGCUUGGUCCCAGCCUCCUCGCUGGCGCCGGCUGGGCACCAUUCCGAGGGGACCGUCCCCUCGGUAAUGGCGAAUGGGACCCA
The self-cleavage of the first is lower: 0.125 for the first, 0.453 for the second.

Compared with GGCCGGCUUGGUCCCAGCCUCCUCGCUGGCGGCGGCUGGGCAACAUUCCGAGGGGACCGUCCCCUCGGUAAUGGCGAAUGGGACCCA, GGCCGGCUUGGUCCCAGCCUCCUCGCUGGCGACGGCUGGGCAACAUUCCGAGGGGACCGUCCCCUCGGUAAUGGCGAAUGGGACCCA is lower in self-cleavage: 0.125 for the first, 0 for the second.

First: GGCCGGCGUGGUCCCAGCCUCCUCGCUGGCGCCGGCUGGGCAACAUGCCGAGGGGACCGUCCCCUCGGUAAUGGCGAAUGGGACCCA
Second: GGCCGGCGUGGUCCCAGCCUCCUCGCUGGCGCCGGCUGGGCAACAUACCGAGGGGACCGUCCCCUCGGUAAUGGCGAAUGGGACCCA
The self-cleavage of the first is lower: 0.782 for the first, 1.05 for the second.

Going from GGCCGGCGUGGUCCCAGCCUCCUCGCUGGCGCCGGCUGGGCAACAUCCCGAGGGGACCGUCCCCUCGGUAAUGGCGAAUGGGACCCA to GGCCGGCUUGGUCCCAGCCUCCUCGCUGGCGCCAGCUGGGCAACAUUCCGAGGGGACCGUCCCCUCGGUAAUGGCGAAUGGGACCCA, the self-cleavage falls from 1.07 to 0.242.

Going from GGCCGGCUUGGUCCCAGCCUCCUCGCUGGCGCCUGCUGGGCAACAUUCCGAGGGGACCGUCCCCUCGGUAAUGGCGAAUGGGACCCA to GGCCGGCGUGGUCCCAGCCUCCUCGCUGGCGCCGGCUGGGCAACAUUCCGAGGGGACCGUCCCCGCGGUAAUGGCGAAUGGGACCCA, the self-cleavage rises from 0.142 to 0.906.

First: GGCCGGCUUGGUCCCAGCCUCCUCGCUGGCGCCGGCUGGGCAACAUUCCGAGGGGACCGUCCCCUCGGUAAUGGCGAAGGGGACCCA
Second: GGCCGGCUUGGUCCCAGCCUCCUCGCUGGCGCCGGCUGGGCAACAUUCCGAGGGGACCGUCCCCUCGGUAAUGGCGAAAGGGACCCA
The self-cleavage of the first is lower: 0.289 for the first, 0.525 for the second.

First: GGCCGGCUUGGUCCCAGCCUCCUCGCUGGCGCCGGCUGGGCAACAUUCCGAGGCGACCGUCCCCUCGGUAAUGGCGAAUGGGACCCA
Second: GGCCGGCUUGGUCCCAGCCUCCUCGCGGGCGCCGGCUGGGCAACAUUCCGAGGGGACCGUCCCCUCGGUAAUGGCGAAUGGGACCCA
The self-cleavage of the first is lower: 0.538 for the first, 0.906 for the second.

Compared with GGCCGGCUUGGUCCCAGCCUCCUCGCUGGCGCCGGCUGGGCAACAUUCCGAGGGGACCGUCCCCUCGAUAAUGGCGAAUGGGACCCA, GGCCGGCUUGGUCCCAGCCUCCUCGCUGGCGCCGGCUGGGCAACAUUCCGAGGGGACCGUCCCGUCGGUAAUGGCGAAUGGGACCCA is higher in self-cleavage: 0.511 for the first, 0.856 for the second.

Going from GGCCGGCUUGGUCCCAGCCUCCUCGCUGGCGCCGGCUGGGGAACAUUCCGAGGGGACCGUCCCCUCGGUAAUGGCGAAUGGGACCCA to GGCCGGCUUGGUCCCAGCCUCCUCGCUGGCGCCGGCUGGGCAACAUUCCGAGGGGACCGUCCCCUCGGUAAUGACGAAUGGGACCCA, the self-cleavage falls from 0.506 to 0.115.

Compared with GGCCGGCUUGGUCCCAGCCUCCUCGCUGGCACCGGCUGGGCAACAUUCCGAGGGGACCGUCCCCUCGGUAAUGGCGAAUGGGACCCA, GGCCGGCGUGGUCCCAGCCUCCUCGCUGGCGCCGGCUGGGCAACAUUCCGAGGGGACCGUCCCCUCGGUAAUGGCGAAGGGGACCCA is lower in self-cleavage: 0.405 for the first, 0.332 for the second.

Going from GGCCGGCAAGGUCCCAGCCUCCUCGCUGGCGCCGGCUGGGCUACAUUCCGAGGGGACCGUCCCCUCGGUAAUGGCGAAUGGGACCCA to GGCCGGCUUGGUCCCAGCCUCCUCGCUGGCGCCGGCUGGGCAACAUUCCGAGGGGACCGUCCCCUCGGUGAUGGCGAAUGGGACCCA, the self-cleavage rises from 0.688 to 0.969.

Compared with GGCCGGCUUGGUCCCAGCCUCCUCGCUGGCGCCGGCUGGGCAACAUUCCAAGGGGACCGUCCCCUCGGUAAUGGCGAAUGGGACCCA, GGCCGGCUUGGUCCCAGCCUCCUCGCUGGCGCCGGCUGGGCAACAUUCCGAGGGGACCGUCCCCUCGGUAAUGGGGAAUGGGACCCA is lower in self-cleavage: 0.739 for the first, 0.142 for the second.

Going from GGCCGGCUUGGUCCCAGCCUCCUCGCUGGCGCCGGCUGGGCAACAUUUCGAGGGGACCGUCCCCUCGGUAAUGGCGAAUGGGACCCA to GGCCGGCUUGGUCCCAGCCUCCACGCUGGCGCCGGCUGGGCAACAUUCCGAGGGGACCGUCCCCUCGGUAAUGGCGAAUGGGACCCA, the self-cleavage falls from 1.13 to 0.804.

Going from GGCCGGCUUGGUCCCAGCCUCCUGGCUGGCGCCGGCUGGGCAACAUUCCGAGGGGACCGUCCCCUCGGUAAUGGCGAAUGGGACCCA to GGCCGGCUUGGUCCCAGCCUCCUCGCUGGCGCCGGCUGGGCAACAGUCCGAGGGGACCGUCCCCUCGGUAAUGGCGAAUGGGACCCA, the self-cleavage rises from 0.0405 to 0.604.

Going from GGCCGGCUUGGCCCCAGCCUCCUCGCUGGCGCCGGCUGGGCAACAUUCCGAGGGGACCGUCCCCUCGGUAAUGGCGAAUGGGACCCA to GGCCGGCUUGGUCCCAGCCUCCUCGCUGGCGCCGGCUGGGCAACUUUCCGAGGGGACCGUCCCCUCGGUAAUGGCGAAUGGGACCCA, the self-cleavage rises from 0.227 to 0.587.

First: GGCCGGCUUGGUCCCAGCCUCCUCGCUGGCGCCGGCUGGGCAACGUUCCGAGGGGACCGUCCCCUCGGUAAUGGCGAAUGGGACCCA
Second: GGCCGGCUUGGUCCCAGCCGCCUCGCUGGCGCCGGCUGGGCAACAUUCCGAGGGGACCGUCCCCUCGGUAAUGGCGAAUGGGACCCA
The self-cleavage of the first is higher: 0.489 for the first, 0.166 for the second.

Compared with GGCCGGCUUGGUCCCAGCCUCCUCGCUGGCGCCGGCUGGGCAACAUUCCGAGCGGACCGUCCCCUCGGUAAUGGCGAAUGGGACCCA, GGCCGGCUUGGUCCCAGCCUCCUCGCUGGCGCCGGCUGGGCAACAUUCCGAGGGGACGGUCCCCUCGGUAAUGGCGAAUGGGACCCA is lower in self-cleavage: 1.01 for the first, 0.582 for the second.

First: GGCCGGCUUGGUCCCAGCCUCCUCGCUGGGGCCGGCUGGGCAACAUUCCGAGGGGACCGUCCCCUCGGUAAUGGCGAAUGGGACCCA
Second: GGCCGGCUUGGUCACAGCCUCCUCGCUGGCGCCGGCUGGGCAACAUUCCGAGGGGACCGUCCCCUCGGUAAUGGCGAAUGGGACCCA
The self-cleavage of the first is lower: 0.0369 for the first, 0.192 for the second.

Compared with GGCCGGCUUGGUCCCAGCCUCCUCGCUGGCGCCGGCUGGGCAACAUUCCGAGGGGACCGUCCCCUCGGUAAUGGCGAAUGGGACCCG, GGCCGGCUUGGUCCCAGCCUCCUCGCUGGCGCCGGCUGGGCAACAUUCCGAGGGGACCGUCCCCUCGGUAAUGGCGAAUGGGACCCC is higher in self-cleavage: 0.754 for the first, 0.845 for the second.

First: GGCCGGCUUGGUCCCAGCCUCCUCGCUAGCGCCGGCUGGGCAACAUUCCGAGGGGACCGUCCCCUCGGUAAUGGCGAAUGGGACCCA
Second: GGCCGGCUUGGUCCCAGCCUCCUCGCUGGCGCCGGCUGGGCAACAUUCCGAGGGGACCGUCCCCCCGGUAAUGGCGAAUGGGACCCA
The self-cleavage of the first is lower: 0.0369 for the first, 0.895 for the second.

Compared with GGCCGGCUUGGUCCCAGCCUCCUCGCUGGCGCCGGCUGGGCCACAUUCCGAGGGGACCGUCCCCUCGGUAAUGGCGAAUGGGACCCA, GGCCGGCUUGGUCCCAGCCUCCUCGCUGGCGCCGGCUGGGCAACAUUCCGAGGGGACCGUCCCCUCGGUAAUGGCGAAUGGAACCCA is lower in self-cleavage: 0.0692 for the first, 0 for the second.

First: GGCCGGCUUGGUCCCAGCCUCCUCGCUGGCGCCGGCUGGGCAACAUUCCGAGGGGACCGUCCCCUCGGUAAUGGCGAAUGGGACGCA
Second: GGCCGGCUUGGUCCCAGCCUCCUCGCUGGCGCCGGCUGGGCAACAUUCCGAGGGGACCGUCCCCUCGGUAAUGGCGAAUGGGACUCA
The self-cleavage of the first is lower: 0.883 for the first, 1.09 for the second.

First: GGCCGGCUUGGUCCCAGCCUCCUCGCUGGCGCCGGCUGGGCAACAUUCCGAGGGGACCGUCCCCUCGGUAAUGGCGAAUGGGACACA
Second: GGCCGGCUUGGUCCCAGCCUCCUCGCUGGCGCCGGCUGGGCAACAUGCCGAGGGGACCGUCCCCUCGGUAAUGGCGAAUGGGACCCA
The self-cleavage of the first is higher: 0.959 for the first, 0.831 for the second.

Going from GGCCGGCUUGGUCCCAGCCUCCUCGCUGGCGCCGGCUGGGCAACAUUCCGAGGGGACCGUCCCCUCGGUAAUGGCGAAUGGGUCCCA to GGCCGGCUUGGUCCCAGCCUCCUCGCUGGCGCCGGCUGGGCAACAUUCCGAGGGGACCGUCCCCUCGGUAAUGGCAAAUGGGACCCA, the self-cleavage rises from 0.26 to 0.95.

Going from GGCCGGCUUGGUCCCAGCCUCCUCGCUGGCGCCGGCUGGGCAACAUUCCGAGGGGACCGUCCCCUCGGUAAUGGCUAAUGGGACCCA to GGCCGGCGUGGUCCCAGCCUCCUCGCUGGCGCCGGCUGGGCAACAUUCCGAGGGGACCGACCCCUCGGUAAUGGCGAAUGGGACCCA, the self-cleavage rises from 0.707 to 0.95.

Going from GGCCGGCAAGGUCCCUGCCUCCUCGCUGGCGCCGGCUGGGCAACAUUCCGAGGGGACCGUCCCCUCGGUAAUGGCGAAUGGGACCCA to GGCCGGCUUGGUCCCAGCCUCCUCGCUGGCGCCGGCUGGGCAACAUUCCGAGGGGACCGUCCCCUCGGUAAUGGCGACUGGGACCCA, the self-cleavage falls from 1.19 to 0.128.
